Test results: article PMC10518009

What was measured:
ACE2-His (human) = ACE2-His (human) (UniProt Q9BYF1); assay: ELISA; BPS Bioscience #79936 kit: ACE2-His held on a 96-well nickel-coated plate, test compound (25-200 µg/mL) incubated 60 min at room temperature, then spike (RBD)-Fc added for 60 min, anti-mouse Fc-HRP, chemiluminescence
[1] = target: SARS-CoV-2 spike (RBD)-Fc (SARS-CoV-2) (UniProt P0DTC2); assay: ELISA; BPS Bioscience #79936 kit: plate coated with spike (RBD)-Fc, serial concentrations of test compound (200-12.5) added, kit completed as in its manual, luminescence

Sequence of ACE2-His (human) (Q9BYF1 18-805): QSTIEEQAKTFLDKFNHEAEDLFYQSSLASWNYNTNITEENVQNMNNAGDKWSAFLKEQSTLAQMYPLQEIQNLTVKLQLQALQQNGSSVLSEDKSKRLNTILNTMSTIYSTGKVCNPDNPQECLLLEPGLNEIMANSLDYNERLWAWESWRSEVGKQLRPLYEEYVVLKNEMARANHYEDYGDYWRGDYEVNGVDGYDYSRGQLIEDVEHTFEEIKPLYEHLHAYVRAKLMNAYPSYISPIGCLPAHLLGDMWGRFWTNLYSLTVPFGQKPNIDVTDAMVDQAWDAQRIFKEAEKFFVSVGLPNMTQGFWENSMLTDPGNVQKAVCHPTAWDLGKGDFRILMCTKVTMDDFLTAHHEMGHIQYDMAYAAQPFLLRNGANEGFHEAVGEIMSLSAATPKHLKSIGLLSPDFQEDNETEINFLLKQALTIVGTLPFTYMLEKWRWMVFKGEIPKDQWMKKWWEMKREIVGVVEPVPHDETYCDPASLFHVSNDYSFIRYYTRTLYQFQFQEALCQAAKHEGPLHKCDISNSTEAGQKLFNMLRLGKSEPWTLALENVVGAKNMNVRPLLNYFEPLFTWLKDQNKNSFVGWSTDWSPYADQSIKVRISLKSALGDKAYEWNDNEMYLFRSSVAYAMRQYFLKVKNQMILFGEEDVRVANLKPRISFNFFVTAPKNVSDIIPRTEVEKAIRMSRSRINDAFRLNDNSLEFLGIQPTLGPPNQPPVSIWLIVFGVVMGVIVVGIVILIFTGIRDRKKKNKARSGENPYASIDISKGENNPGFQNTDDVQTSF

Substance | maximum percent inhibition of ACE2/spike at 200 mg concentration (ACE2-His (human)) [%] | maximum percent inhibition (RBD neutralization) [1] [%]
bovine lactoferrin (natural protein; other documents disagree on this pair) | 33 | –
bovine lactoferrin (natural protein) | – | 94
